{
  "source": "patent US20260092113A1",
  "about": "(Sanofi, published 2026)",
  "binders": {"B1": {"name": "bispecific antibody L1 (anti-CD28/anti-OX40) (bispecific antibody, human IgG1, kappa, L234A L235A)", "light": "not shown", "heavy": "not shown", "chain": "DVQLVESGGGVVQPGGSLRLSCAASGSFFSIDTMDWYRQAPGKQRELVTGVTSGGLTNYADSVKGRFTISIDNAKNTVYLQMNSLRPEDTALYYCSARIRTSGGGGWSTYWGQGTLVTVSSGGGGSDKTHTCPPCPAPEAAGGPSVFLFPPKPKDTLMISRTPEVTCVVVDVSHEDPEVKFNWYVDGVEVHNAKTKPREEQYNSTYRVVSVLTVLHQDWLNGKEYKCKVSNKALPAPIEKTISKAKGQPREPQVCTLPPSRDELTKNQVSLSCAVKGFYPSDIAVEWESNGQPENNYKTTPPVLDSDGSFFLVSKLTVDKSRWQQGNVFSCSVMHEALHNRFTQKSLSLSPG", "notes": "also called L1 & L4 OX40 arm x L1 & L3 & L2 CD28 arm"}},
  "biological_target": "T1, human OX40 on the surface of target cells (HEK293 cells expressing human OX40, jurkat cells engineered to … (human, UniProt P43489 29-277))",
  "T1 construct": "whole, on cells; also called huOX40",
  "T1 sequence (looked up)": "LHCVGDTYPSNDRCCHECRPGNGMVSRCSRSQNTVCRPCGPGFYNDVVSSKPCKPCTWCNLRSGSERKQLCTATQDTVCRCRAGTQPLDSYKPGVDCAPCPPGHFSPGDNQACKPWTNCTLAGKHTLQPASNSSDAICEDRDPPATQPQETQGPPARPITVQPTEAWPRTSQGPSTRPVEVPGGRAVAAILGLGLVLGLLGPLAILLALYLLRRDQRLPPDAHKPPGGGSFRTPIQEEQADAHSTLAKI",
  "assay": "flow cytometry on HEK293 cells expressing human OX40, anti-human IgG Fc PE, MFI",
  "data": [
    {"binder": "B1", "values": [
      {"measurement": "EC50 (read off the curve)", "value": "~0.8", "unit": "nM"}
    ]}
  ]
}
